From PMC10842012

Tests used:
[1] = target: HRP29 decoration protein gp48 (Shigella phage HRP29); assay: cryo-EM structure
[2] = target: HRP29 portal protein gp35 (Shigella phage HRP29); assay: cryo-EM structure
[3] = target: HRP29 tailspike protein gp52 (Shigella phage HRP29); assay: negative-stain electron microscopy with 2D classes and 3D reconstruction
[4] = target: HRP29 tailspike adapter protein gp44 (in the virion) (Shigella phage HRP29); assay: cryo-EM structure

Work on “HRP29 decoration protein gp48 (natural protein)” yielded a stoichiometry N [1] of 2.
Substance “HRP29 portal protein gp35 (natural protein)” has a stoichiometry N [2] of 12.
“HRP29 tailspike protein gp52 (natural protein)” gave a stoichiometry N [3] of 3.
Work on “HRP29 tailspike adapter protein gp44 (in the virion) (natural protein)” yielded a stoichiometry N [4] of 3.
